In publication PMC7497631, “Role of Membrane Tension Sensitive Endocytosis and Rho GTPases in the Uptake of the Alzheimer’s Disease Peptide Aβ(1-42)” (ACS Chemical Neuroscience, 2020):

How the values were obtained:
SH-SY5Y cells [1] = test: Live cell confocal microscopy of uptake during changes in membrane tension; conditions: 2 μM HF488-Aβ(1-42); for internalization during hypotonic conditions: 10 min in hypotonic medium (75% MQ water, 25% cell culture medium); for internalization during hypotonic conditions / internalization during recovery (re-exposure to isotonic conditions): 250 μg/mL AF647-dextran 10 kDa or 5 μg/mL AF488-Trf; for internalization during recovery (re-exposure to isotonic conditions): 10 min in isotonic medium after 10 min hypotonic (75% MQ); for internalization under isotonic conditions: 10 min in isotonic medium, 250 μg/mL AF647-dextran 10 kDa
Method: SH-SY5Y cells were incubated with Aβ(1-42), Trf, and dextran 10 kDa while exposed to changes in membrane tension and analyzed by confocal microscopy and flow cytometry. For uptake at isotonic conditions, the cells were washed 1× with serum-free medium, incubated with either 2 μM HF488-labeled Aβ(1-42), 5 μg/mL AF488-labeled Trf, or 250 μg/mL AF647-labeled dextran 10 kDa in serum-free medium with the addition of 2% B-27 for 10 min, washed 1× with serum free medium for microscopy, or 3×/2 min on ice with either ice-cold serum-free medium (Aβ(1-42) and dextran) or acidic buffer (0.1 M glycine-HCl buffer pH 2.5 with 150 mM NaCl; Trf)[80] and harvested for analysis by flow cytometry. […] Lastly, cells analyzed for uptake at recovery conditions were first pretreated with isotonic medium for 10 min followed by treatment in hypotonic medium for 10 min, whereupon they were exposed to the peptides and dextran in isotonic medium for 10 min.

SH-SY5Y cells [2] = conditions: cited from earlier work; for internalization in presence of inhibitors of actin polymerization: SH-SY5Y cells
Source text: Rho GTPases are important regulators of CIE (Figure 1).[30],[41] […] Since Cdc42 (and other Rho GTPases) regulate the actin cytoskeleton,[74] this would be consistent with our previously published result that inhibitors of actin polymerization reduced Aβ(1-40) and Aβ(1-42) but not Trf internalization in SH-SY5Y cells.[13] To f ... || We repeated this set of experiments, exploring also the Rho GTPases Rac1 and RhoA. Overexpression of EGFP-tagged Rac1 (DA Q61L, WT, and DN T17N) induced lamellipodia-like morphologies in transfected cells as expected from the literature.[74] […] The latter result is contrasting observations by ... || We report that Aβ(1-42) uptake into SH-SY5Y cells is sensitive to osmotic pressure-induced alterations in membrane tension, which points to the involvement of CLICs or macropinocytosis. Importantly, Aβ(1-42) behaves distinctively different than the CME-cargo Trf, but also dextran, which is an unspecific fluid-phase endocytosis marker.

SH-SY5Y cells [3] = test: Cellular uptake by flow cytometry in cells transfected with EGFP-tagged Rho GTPases (Cdc42, Rac1, RhoA); conditions: for uptake on overexpression of DA EGFP-Cdc42 Q61L relative to nontransfected cells / uptake on overexpression of WT or DN EGFP-Cdc42 relative to nontransfected cells: ~24 h post-transfection; for uptake on overexpression of DA EGFP-Cdc42 Q61L relative to nontransfected cells: 1 μM HF647-Aβ(1-42) 1 h, 5 μg/mL AF647-Trf 5 min (N = 3, n = 4) or 125 μg/ml AF647-dextran 10 kDa 1 h (n = 4); for uptake on overexpression of WT or DN EGFP-Cdc42 relative to nontransfected cells / uptake on overexpression of all variants of EGFP-tagged RhoA (DA Q63L, WT, DN T19N) relative to nontransfected cells: 1 μM HF647-Aβ(1-42) 1 h or 5 μg/mL AF647-Trf 5 min; for uptake on overexpression of all variants of EGFP-tagged RhoA (DA Q63L, WT, DN T19N) relative to nontransfected cells: ~30 h post-transfection, N = 4, n = 4; for uptake on overexpression of EGFP-tagged Rac1 (DA Q61L, WT, DN T17N) relative to nontransfected cells: 1 μM HF647-Aβ(1-42) 1 h (N = 3, n = 4) or 125 μg/ml AF647-dextran 10 kDa 1 h (n = 4)
Method: SH-SY5Y cells were passaged 2 days prior to transfection, grown to ∼70% confluency, and transfected with plasmids encoding for Rho GTPases (EGFP-tagged DA, WT, and DN variants of Cdc42, Rac1, and RhoA; see the above section Reagents) by electroporation using a Neon Transfection System (Invitrogen, Carlsbad, CA), following the protocol provided by the manufacturer and applying a single pulse of 1 100 V with a pulse width of 50 ms. The cells were transfected using 1 μg of plasmid DNA/100 000 cells in a 10 μL Neon Tip or 10 μg of plasmid DNA/10^6 cells in a 100 μL Neon Tip and plated immediately after. Based on the initial experiments, the analysis was set to ∼24 h, ∼27 h, and ∼30 h post-transfection for Cdc42, Rac1, and RhoA, respectively, by evaluating the time it took until the cells expressed the proteins and adapted the expected morphologies.
Flow cytometry was used for quantification of cellular uptake. […] All samples were kept on ice until they were analyzed on a Guava EasyCyte 8HT (Millipore, Darmstadt, Germany) that automatically retrieves samples from a 96-well plate. In order to exclude effects due to difference in delay time, we used mixed order of analysis, loading only a few samples at a time with the remaining samples kept on ice. Only the central cell cluster on the forward/side scatter (FSC/SSC) dot plot was analyzed, and for each sample 5 000 cells from within the gate were counted. […] The mean cellular uptake or level of Rho GTPase expression was estimated as the average fluorescence intensity of all cells within the gate. The mean cellular uptake was baseline corrected by subtracting the signal recorded for untreated cells. Each cell treatment was performed in three or four technical replicates (n = 3–4) and repeated on at least two separate occasions (N ≥ 2).
Statistical analysis was performed by matched sample ANOVA using GraphPad Prism software (GraphPad, San Diego, CA) on data that had been normalized so that the uptake in nontransfected cells was 100% for the individual experiments. Matched sample ANOVA was followed by multiple comparisons with the Bonferroni posthoc test to test for differences in mean peptide uptake between nontransfected cells and uptake at the different transfection efficiencies. This means that the reported individual p-values have been adjusted for the number of comparisons that were relevant to the experiment.

SH-SY5Y cells [4] = test: Cellular uptake quantified by flow cytometry during changes in membrane tension; assay type: cell-based, human; conditions: for cellular uptake during the recovery phase relative to uptake in isotonic media: 2 μM HF488-labeled Aβ(1-42) or 250 μg/mL AF647-labeled dextran 10 kDa, 10 min in isotonic medium after 10 min hypotonic (75% MQ), serum-free medium + 2% B-27, flow cytometry mean fluorescence, N = 8, n = 3–4; for effect of hypertonic media on uptake: addition of 100 mM NaCl to the culture medium, 2 μM HF488-Aβ(1-42), 250 μg/mL AF647-dextran 10 kDa, 10 min, flow cytometry, N = 4, n = 3–4
Source text: Flow cytometry was used for quantification of cellular uptake.

Compound | internalization during hypotonic conditions (SH-SY5Y cells [1]) | internalization during recovery (re-exposure to isotonic conditions) (SH-SY5Y cells [1]) | internalization in presence of inhibitors of actin polymerization (SH-SY5Y cells [2]) | uptake on overexpression of DA EGFP-Cdc42 Q61L relative to nontransfected cells (SH-SY5Y cells [3]) | uptake on overexpression of WT or DN EGFP-Cdc42 relative to nontransfected cells (SH-SY5Y cells [3]; N = 3, n = 4) | uptake on overexpression of all variants of EGFP-tagged RhoA (DA Q63L, WT, DN T19N) relative to nontransfected cells (SH-SY5Y cells [3]) | effect of macropinocytosis inhibitor on the uptake of Aβ(1-40) and Aβ(1-42) (SH-SY5Y cells [2]) | cellular uptake during the recovery phase relative to uptake in isotonic media (SH-SY5Y cells [4]) | effect of hypertonic media on uptake (SH-SY5Y cells [4]) | internalization under isotonic conditions (SH-SY5Y cells [1]) | uptake on overexpression of EGFP-tagged Rac1 (DA Q61L, WT, DN T17N) relative to nontransfected cells (SH-SY5Y cells [3]; ~27 h post-transfection) | other results
Trf: AlexaFluor488- and AlexaFluor647-labeled Transferrin, ligand of clathrin-mediated endocytosis | blocked | remained low | not | reduced | no effect | reduced | – | – | – | – | – | uptake in cells with the highest concentration of WT and DN Rac1 (SH-SY5Y cells [3]; ~27 h post-transfection, 5 μg/mL AF488-labeled Trf 5 min, high gate, N = 3, n = 4): reduction; uptake in cells with medium expression level of DA Rac1 versus control (SH-SY5Y cells [3]; ~27 h post-transfection, 5 μg/mL AF488-labeled Trf 5 min, medium gate, N = 3, n = 4): slightly more
Oc1ccc2ccccc2c1SSc1c(O)ccc2ccccc12 [IPA-3] | – | – | – | – | – | – | reductions | – | – | – | – | –
dextran | little or no internalization | induced | – | unaffected | – | – | – | ~8 times | did not increase | low | did not alter | reduction of uptake in cells expressing DA RhoA (SH-SY5Y cells [3]; ~30 h post-transfection with RhoA Q63L, 125 μg/ml AF647-labelled dextran 10 kDa 1 h, n = 4): up to 50%
Aβ(1-42): Synthetic Aβ(1-42) peptide, conjugated to the HiLyte Fluor HF488 or HF647 at the N-terminus, from Anaspec; applied in highly monomeric form | little or no internalization | resumed to internalize | reduced | reduced | no effect | reduced | – | doubles | did not increase | formation of small endosomal vesicles containing Aβ(1-42) was observed | None of the Rac1 variants had any effect | internalization by NIH-3T3 fibroblasts compared with CHO and SH-SY5Y (SH-SY5Y cells [2]): more
Aβ(1-40): Amyloid-β isoform; uptake results quoted from the authors' earlier work | – | – | reduced | – | – | – | – | – | – | – | – | –
COC[C@H]1OC(=O)c2coc3c2[C@@]1(C)C1=C(C3=O)[C@@H]2CCC(=O)[C@@]2(C)C[C@H]1OC(C)=O [wortmannin] | – | – | – | – | – | – | reductions | – | – | – | – | –
